B1: ΔK95 mutant recombinant S100P protein (natural protein, human, UniProt P25815 1-95, looked up)
chain: MTELETAMGMIIDVFSRYSGSEGSTQTLTKGELKVLMEKELPGFLQSGKDKDAVDKLLKDLDANGDAQVDFSEFIVFVAAITSACHKYFEKAGL
notes: S100P, human, with the C-terminal lysine (K95) deleted, so that the chain ends with leucine 94; Identity confirmed by mass spectrometry; also called ΔK95 S100P; ΔK95 mutant rS100P; source: recombinant protein from pET15b vector after site-directed mutagenesis; details in Supplementary Methods S1
B2: wild-type recombinant S100P protein (natural protein, human, UniProt P25815 1-95, looked up)
chain: MTELETAMGMIIDVFSRYSGSEGSTQTLTKGELKVLMEKELPGFLQSGKDKDAVDKLLKDLDANGDAQVDFSEFIVFVAAITSACHKYFEKAGLK
notes: S100P, human, 95-amino-acid monomer; cDNA encoding the wild-type protein in pET15b; primers on GenBank NM_005980 run from the ATG (95) to the stop codon (382); also called rS100P; wild-type rS100P; source: recombinant protein from a cDNA in pET15b vector; details in Supplementary Methods S1
B3: K95A mutant recombinant S100P protein (natural protein, human, UniProt P25815 1-95, looked up)
chain: B2 chain with K95A
notes: S100P, human, 95 amino acids, with the C-terminal lysine replaced by alanine; Identity confirmed by mass spectrometry; also called K95A S100P; K95A mutant rS100P; source: recombinant protein from pET15b vector after site-directed mutagenesis; details in Supplementary Methods S1

Where a chain is given by its changes, count along the chain named. Numbers in names are those of the source. Where “and” joins values, the source holds several entries; their conditions need not be identical. Equal entries are not always repeated.

The target in the assay is T1, recombinant protein consisting of the 149 C-terminal amino acids of NMMIIA (UniProt P35579 1812-1960).
T1 construct: non-muscle myosin heavy chain isoform IIA (NMMIIA), the 149 C-terminal amino acids; also called rNMMIIA; recombinant C-terminal fragment of non-muscle myosin II heavy chain; source: recombinant
T1 sequence (looked up): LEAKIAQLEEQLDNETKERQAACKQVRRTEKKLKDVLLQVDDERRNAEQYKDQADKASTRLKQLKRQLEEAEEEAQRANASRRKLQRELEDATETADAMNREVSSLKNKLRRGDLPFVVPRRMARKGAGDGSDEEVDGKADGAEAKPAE
Put plainly: resonant mirror biosensor (IAsys); rNMMIIA immobilised, rS100P variants in solution; dual-channel IAsys resonant mirror biosensor; association and dissociation curves fitted a single-site model at least as well as a two-site model; equilibrium and kinetic Kd. The following applies: both partners purified.
For B1, the Kd was 2700 nM and 6000 nM.

In the case of B2, the equilibrium dissociation constant (Kd) lay within 370 to 470 nM.

B3: the Kd was 2300 nM and 4100 nM.

These data come from PMC8533620, “The Role of the C-Terminal Lysine of S100P in S100P-Induced Cell Migration and Metastasis” (Biomolecules, 2021).
